The assay has as its target endogenous Akt (UniProt P31749). The assay can be described thus: cell-based or functional assay.

Sequence of endogenous Akt (P31749 whole entry): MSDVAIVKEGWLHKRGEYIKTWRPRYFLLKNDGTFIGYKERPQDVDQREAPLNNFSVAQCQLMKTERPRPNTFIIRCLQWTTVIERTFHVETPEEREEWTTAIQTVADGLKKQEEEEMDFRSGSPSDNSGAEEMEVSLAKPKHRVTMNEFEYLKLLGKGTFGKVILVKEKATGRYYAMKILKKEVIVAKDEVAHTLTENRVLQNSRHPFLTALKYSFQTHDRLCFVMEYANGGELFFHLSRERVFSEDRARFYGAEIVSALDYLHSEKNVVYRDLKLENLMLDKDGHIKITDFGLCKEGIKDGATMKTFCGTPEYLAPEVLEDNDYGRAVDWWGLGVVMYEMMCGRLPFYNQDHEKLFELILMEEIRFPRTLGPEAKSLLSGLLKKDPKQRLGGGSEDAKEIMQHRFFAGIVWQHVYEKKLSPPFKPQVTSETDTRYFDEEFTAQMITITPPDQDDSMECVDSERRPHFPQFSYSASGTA

On to “endogenous PHLPP2 (from UniProt Q6ZVD8 1-1323) (enzyme)”, for which the increase in Ser473 phosphorylation on siRNA knock down of PHLPP2 in H157 cells amounted to 4 fold. The substance “endogenous PHLPP2 (from UniProt Q6ZVD8 1-1323)” came in with an increase in Akt phosphorylation at Ser 473 on siRNA knock down of PHLPP2 in 293T cells of 2 fold.

The values are drawn from patent US20080108569A1, “Compositions and Methods for Treating Diseases Associated With Phlpp” (The Regents of the University of California, priority 2005, published 2008).
